Source: FireProtDB (doi:10.1021/bi060907v)

B1: Ribonuclease HII, O74035 (parent)
chain: MKIAGIDEAGRGPVIGPMVIAAVVVDENSLPKLEELKVRDSKKLTPKRREKLFNEILGVLDDYVILELPPDVIGSREGTLNEFEVENFAKALNSLKVKPDVIYADAADVDEERFARELGERLNFEAEVVAKHKADDIFPVVSAASILAKVTRDRAVEKLKEEYGEIGSGYPSDPRTRAFLENYYREHGEFPPIVRKGWKTLKKIAEKVESEKKAEERQATLDRYFRKV

Variants of: B1
Conditions: Thermococcus kodakarensis (strain ATCC BAA-918 / JCM 12380 / KOD1), pH 9, reversible: Yes, structure 1IO2, whole UniProt chain shown; for ddG of mutation (higher = less stable) / denaturant m value / denaturant midpoint (higher = more stable): 50 °C, GdnHCl, CD, Tris-HCl 20 mM; for Tm / change of melting temperature, mutant - wild type (higher = more stable) / unfolding enthalpy (calorimetric) / unfolding enthalpy (van 't Hoff): Thermal, DSC, Gly-NaOH 20 mM

Variant | ddG of mutation (higher = less stable) | denaturant m value | denaturant midpoint (higher = more stable) | Tm | change of melting temperature, mutant - wild type (higher = more stable) | unfolding enthalpy (calorimetric) | unfolding enthalpy (van 't Hoff)
MKIAGIDEAGRGPVIGPMVIAAVVVDENSLPKLEELKVRDSKKLTPKRREKLFNEILGVLDDYVILELPPDVIGSREGTLNEFEVENFAKALNSLKVKPDVIYADAADVDEERFARELGERLNFEAEVVAKHKAADIFPVVSAASILAKVTRDRAVEKLKEEYGEIGSGYPSDPRTRAFLENYYREHGEFPPIVRKGWKTLKKIAEKVESEKKAEERQATLDRYFRKV [D135A] | -2.56 kcal/mol | 4.85 kcal/mol/M | 2.37 M | 90.4 °C | 5.2 °C | 147 kcal/mol | 153 kcal/mol
MKIAGINEAGRGPVIGPMVIAAVVVDENSLPKLEELKVRDSKKLTPKRREKLFNEILGVLDDYVILELPPDVIGSREGTLNEFEVENFAKALNSLKVKPDVIYADAADVDEERFARELGERLNFEAEVVAKHKADDIFPVVSAASILAKVTRDRAVEKLKEEYGEIGSGYPSDPRTRAFLENYYREHGEFPPIVRKGWKTLKKIAEKVESEKKAEERQATLDRYFRKV [D7N] | -1.67 kcal/mol | 4.45 kcal/mol/M | 2.18 M | 88.3 °C | 3.1 °C | 137 kcal/mol | 163 kcal/mol
MKIAGIDQAGRGPVIGPMVIAAVVVDENSLPKLEELKVRDSKKLTPKRREKLFNEILGVLDDYVILELPPDVIGSREGTLNEFEVENFAKALNSLKVKPDVIYADAADVDEERFARELGERLNFEAEVVAKHKADDIFPVVSAASILAKVTRDRAVEKLKEEYGEIGSGYPSDPRTRAFLENYYREHGEFPPIVRKGWKTLKKIAEKVESEKKAEERQATLDRYFRKV [E8Q] | -0.6 kcal/mol | 3.73 kcal/mol/M | 1.97 M | 85.9 °C | 0.6 °C | 158 kcal/mol | 163 kcal/mol
MKIAGIDAAGRGPVIGPMVIAAVVVDENSLPKLEELKVRDSKKLTPKRREKLFNEILGVLDDYVILELPPDVIGSREGTLNEFEVENFAKALNSLKVKPDVIYADAADVDEERFARELGERLNFEAEVVAKHKADDIFPVVSAASILAKVTRDRAVEKLKEEYGEIGSGYPSDPRTRAFLENYYREHGEFPPIVRKGWKTLKKIAEKVESEKKAEERQATLDRYFRKV [E8A] | -2.65 kcal/mol | 4.73 kcal/mol/M | 2.39 M | 93.2 °C | 8 °C | 171 kcal/mol | 150 kcal/mol
MKIAGIDEAGRGPVIGPMVIAAVVVDENSLPKLEELKVRDSKKLTPKRREKLFNEILGVLDDYVILELPPDVIGSREGTLNEFEVENFAKALNSLKVKPDVIYAAAADVDEERFARELGERLNFEAEVVAKHKADDIFPVVSAASILAKVTRDRAVEKLKEEYGEIGSGYPSDPRTRAFLENYYREHGEFPPIVRKGWKTLKKIAEKVESEKKAEERQATLDRYFRKV [D105A] | -1.58 kcal/mol | 5.66 kcal/mol/M | 2.17 M | 89.4 °C | 4.2 °C | 170 kcal/mol | 162 kcal/mol
